Data set [1] is described as follows: Thermostability assay: residual OTA detoxification activity after 10 min incubation at 45-99° C. (T50). In kind it is physicochemical. The following applies: 0.1 mg/mL protein in 20 mM Tris-HCl pH 7.5, residual OTA detoxification activity relative to 4° C. reference aliquot. As for the experimental part: Stability was determined in terms of thermostability. Notwithstanding, a person having skill in the art is aware that stability towards high temperature (e.g. more than 30° C.) often correlates with stability towards other non-standard conditions such as stability towards acidic or basic pH (e.g. below pH 6.5 or above pH 7.5, respectively), towards elevated salt concentrations, organic solvents or drying.
To determine the kinetic stability of the produced enzymes, thermostability assays were performed. To this end, purified protein samples were diluted to a protein concentration of 0.1 mg/mL in 20 mM Tris-HCl buffer pH 7.5 and aliquots were incubated in a thermocycler for 10 min at either 45, 55, 65, 75, 80, 85, 90, 95 or 99° C. After this incubation, the aliquots were stored at 4° C. until further analysis. A reference aliquot was stored at 4° C. throughout the incubation. Subsequently, all aliquots were assayed for residual OTA detoxification activity using the assay described in Example 3. Residual enzyme activities were calculated relative to the reference aliquot. The temperature range in which 50% of the initial activity was lost after the incubation (T50), in relation to the reference aliquot was determined.

Data set [2] is described as follows: Enzymatic activity comparison: activity remaining after 65° C. for 10 min at pH 6.0, relative to SEQ ID NO: 1. In kind it is physicochemical. As for the experimental part: To compare the temperature behavior and thermostability of selected enzymes to one another, enzyme was incubated at 65° C. for 10 min at pH 6.0. The enzymatic activity remaining after incubation was compared to the remaining activity of the enzyme of SEQ ID NO: 1 after incubation, the latter being set to 100%, see Table 16.

Data set [3] in a line: OTA detoxification activity assay (specific activity, fluorescence reduction ex/em 390/450 nm). The data set is classed as biochemical. The conditions noted are these: SEQ ID NO: 1 = 100%. In outline: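 Recombinant enzyme preparation with 200 ng/mL OTA in 100 mM sodium phosphate, at pH 6.0 and pH 7.5, 37° C. Degradation followed as the fall in fluorescence at ex/em 390/450 nm. Specific activity taken from the initial linear slope; one unit degrades 1 μmol OTA per min at a starting OTA of […].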

Bounds are passed on as bounds.

B1: 26 (protein)
chain: MAFDIALKNGNIFNGKEFIGKSNIYINNGKIVKVSKEELDAKQEIDAMDMFVMPGLIDAHMHISGIKGGSLLKLMFERPEYRTIRATKWLEKLLLAGFTTVRDCGDPISISLAKAVKEGIIKGPNVIAAGRPITQTFGHGELSHDIPLEVSETTGFSEICDGTESCIHAARKVLREGSDFIKIFATGGVLSQRDKPENPQLTYDEIKVIVNEAEKVGTYVAAHAHGDKGARIAIEAGIKTLEHGTLLQDETLKLMIEKKVTLTPTLSIQEVIYRHGKEIGVDEWGLEKIAMVRDSISSVVKKAKDYGITIITGTDLGFETGLEDIDIGKNWMEIVLLIEIGGLTPVEALRAATYNSSIAININSGLIDSGKEADLIIINGNPLEDIKDISKVSYVIKDGKIEVEERKIKN
modifications: exemplary polypeptide
B1: in data set [1], the “T50 (temperature at which 50% of the initial activity was maintained)” value was greater than 95 °C.

B2: 27 (protein)
chain: MDILIKGGQVFNGKDFIGKANVYIKYGKIVEVSKEVKEAKEEIDARDMFVMPGLIDAHIHLSGIKGGSLMKTMFERPEYRVLRASKWLEKLLLAGFTTVRDCGEYVSLALKRAVQEGTIKGSNIIAAGRPVTQTFGHGEISHDIPLEFSHKVGFSEFCDGTESCIHAARKILRDGSDFIKVFATGGVLSQRDKPENPQLSYDEIKAIVNEAHKVGTYVAAHAHGDAGAKIAVEAGVKTIEHGTLLKDDTLKLMVNKGVSLTPTLTIQEVIYRYGKQIGVDEWGLQKIFEVRERVADVVKKAKDYGVLMISGTDLGFETGLWDIDMGKNWYELVLLVERGGLTPKEALTTATYNSSIALGINSGFIDIGKEGDLVVIDGNPLENIYDIAKVTHVLKAGRVEVRNGKLESK
modifications: exemplary polypeptide
Turning to B2, the “T50 (temperature at which 50% of the initial activity was maintained)” value in data set [1] is greater than 95 °C.

B3: 23 (protein)
chain: MQYDVAIKNGNVFTGTEFIGKMNIYISNGKISKVSKEDLNAKQEIDAKDMLVMPGLIDAHMHISGLKGGSLLKIMFEKPEYRALRATKWLEKLLLAGFTTVRDCGEPISISLKRAVNEGYIKGPKIIAAGKPITQTFGHGEFSHDIPLEFSISLGFSEICDGTESCIHAARKVLRDGSDFIKIFATGGVLSQRDRPDMPQLSFDEIRAIVNEAEKAGTYVAAHAHGDKGARIAIEAGIKTLEHGSLLKEDTLKLMLEKNISLTPTLTITEIIYKYGKTIGVDEWGLEKIVEVRENLHKVLRKAKELGITIITGTHMGFETGLEDYDIGKNWTEILLLTEVGGLSNEEALRAATYNSAKALGLNSGLIDEGKDADIIVIDGNPLENIKDVSKVVHVIKQGKLEVLDSKIINNY
modifications: exemplary polypeptide
For B3, the “T50 (temperature at which 50% of the initial activity was maintained)” value in data set [1] was greater than 95 °C.

B4: 25 (protein)
chain: MFDLGIKNGNVFSGKDNLGKTNIYVNNGKIVKISKENLEVRQEIDAKDMFVMPGLIDSHIHLSGIKGGSLLKIMFEKPEYRILRASKWLEKLLLAGFTTVRDCGDPISISLAKGVKDGIIIGPNIIAAGRPITQTFGHGEISHDIPLEFSEVLGFSEICDGVESCIHSARKVLREGSDFIKIFATGGVLSQRDRPENPQLTYEEIKSIVNEAEKIGTYVAAHAHGDKGARIAIEAGIKTLEHGTMLKDDTMKLMIEKDVSLTPTLTIQEVIYKYGKQIGVDEWGLEKITEVRNSISSVVKKAKEYGIRIITGTDLGFETGLSDIDIGKNWVELTLLVERGGLTPKEALQAATYNSALSLRINSGLIDTDRNADIIIIDGDPEENISDIAKIDHVIKNGNIIVEKGKIINYS
modifications: exemplary polypeptide
Consider B4, for which the “T50 (temperature at which 50% of the initial activity was maintained)” value in data set [1] is greater than 95 °C.

B5: 28 (protein)
chain: MDISIKGGELFTGKELLGKFNIYIKDKKIVEISKEDKQAEVEVNAKDMFVMPGLIDAHIHLSGVKGGSLLKTMFEKPEYRVLRASKWLERLLLAGFTTVRDCGESISIALKRAVNEKIIKGPKIIAAGRPISQTFGHGELSHDLPLEFSKALSFSEFCDGVESCIHASRKVLREGADFIKIFATGGVLSQRDKPENPQLSYEEIKAIVNEAEKVNTYVAAHAHGDKGARIAIEAGVKTLEHGTLLRDDTLKLMVEKRVSLTPTLTIQELIYKYGKQIGVDEWGLEKINSVRESVAEVVRKAKEYGVLIINGTDLGFETGLDEIDMGKNWMETVLLVERGNLSNVEALRASTYNSAIAIGNDAGIIDIGRPADIIVINGNPSENIRDISKVVHVIKDGSLVVENKRLTDSL
modifications: exemplary polypeptide
B5: the “T50 (temperature at which 50% of the initial activity was maintained)” value in data set [1] is greater than 95 °C.

B6: 29 (protein)
chain: MDLGIKNGNVFNGKGVVGKVNIYVKDGKIVEISKENKQAKIEIDAKDMFVMPGLIDAHIHLTGIKGGSLLKTMFEKPEYRVLRASKWLEKLLLAGFTTVRDCGETISLALKRGVSEGIINGPRIIAAGKPISQTFGHGELSHDVPLEFSMALSFSEFCDGVESCIRASRKVLRDGADFIKIFATGGVLSQRDRPEHPQLSYEEISAIVNEAEKINTYVAAHAHGDKGARIAVEAGIKTLEHGTLLRDETLKLMRERNVTLTPTLTIQELIYKYGKQIGVDEWGLQKINEVRESVVNVVKKAEEYGVMIITGTDLGFETGLEEIDIGKNWMESVLLVERGGLSTISSLRASTYNSAFAIGINAGAIEVGKDADIIVIDGDPTENIRDLSKVRRVVKNGKLTVEDGKFL
modifications: exemplary polypeptide
Regarding B6, the “T50 (temperature at which 50% of the initial activity was maintained)” value in data set [1] is greater than 95 °C.

B7: 158 (protein)
chain: MTTRTRILTAFLSLLAANACAADAAPAAPHTVVLRAARMFDGASGKLVDHPQLTIVGNKIVRIAQGDKAEVPAGAEVVDLGDATLLPGFIDAHVHLSGQSSDNWYGDFFDNMMRFPAEQALYGAYYARITLEAGFTSVRDVGSTDWVALGLRNAIDAGKVPGPRMLVSNYAVGSTGGHADQDPVPPHKLPLAGPLQGVCNGPEECRAAVRYQIKYGANVIKFMPSGGVLSLSDPVDAPELSQDEMNAVIGESHAWGRKVAAHAHGDKAAKMAVAAGVDSIEHGSFIEDDTLRAMKAKNVYLVPTISAIAHVEEKIGTFPPVIAEKGRAAAAHLRQTFRHAVQIGVPIALGTDAAVGAHGSNAREFRYMVENGLTPAQALLAGTANAARLLGTFDRVGTLEAGKLADVVAVPGNPIADITVTERPLFVMKDGVVVRRDAVR
modifications: exemplary polypeptide
Turning to B7, the “Enzymatic activity remaining after incubation, compared to SEQ ID NO: 1 (set to 100%)” value in data set [2] is on record as 9%. In data set [3], the “Specific OTA detoxification activities in % compared to the enzyme of SEQ ID NO: 1, pH 6.0” value was 157% and the “Specific OTA detoxification activities in % compared to the enzyme of SEQ ID NO: 1, pH 7.5” value worked out at 92%.

B8: 159 (protein)
chain: MTTRTRILTAFLSLLAANACAADAAPAAPHTVVLRAARMFDGASGKLVDHPQLTIVGNKIVRIAQGDKAEVPAGAEVVDLGDATLLPGFIDAHVHLSGQSSDNWYGDFFDNMMRFPAEQALYGAYYARITLEAGFTSVRDVGSTDWVALGLRNAIDAGKVPGPRMLVSNYAVGSTGGHADQDPIPPHKLPLAGPLQGVCNGPEECRAAVRYQIKYGANVIKFMPSGGVLSLSDPVDAPELSQDEMNAVIGESHAWGRKVAAHAHGDKAAKMAVAAGVDSIEHGSFIEDDTLRAMKAKNVYLVPTISAAAHVEEKIGTYPPVIAEKGRAAAAHLRQTFRHAVQIGVPIALGTDAGVGAHGSNAREFRYMVENGLTPAQALLAGTANAARLLGTFDRVGTLEAGKLADVVAVPGNPIADITVTERPLFVMKDGVVVRRDAVR
modifications: exemplary polypeptide
As for B8, in data set [2], the “Enzymatic activity remaining after incubation, compared to SEQ ID NO: 1 (set to 100%)” value turned out to be 30%. Moreover, in data set [3], the “Specific OTA detoxification activities in % compared to the enzyme of SEQ ID NO: 1, pH 6.0” value amounted to 84% and the “Specific OTA detoxification activities in % compared to the enzyme of SEQ ID NO: 1, pH 7.5” value stood at 93%.

B9: 24 (protein)
chain: MELAIRNGIVFNGKEIIGKTNIYVREGKIVEVSREDHSAKMEIDAKDMFVMPGLIDAHIHLSGIKGGSLLKIMFEKPEYRVLRAAKWLEKLLLAGFTTVRDCGETVSLALKRALNDGIIGGPKVIAAGKPITQTFGHGELSHDVPLEFSKTMSFSEFCDGMESCIHAARKVLRDGADFIKIFATGGVLSQRDRPEHPQLSYEEIRAIVNEAEKVNTYVAAHAHGDRGARIAIEAGVKTLEHGTLLKDETLKLMKEKNVTLTPTLTIQELIFKYGKQIGVDEWGLQKITSVRENIANVVRKAKEYGVTIISGTDLGFETGLEEIDMGKNWMETVLLVERGGLSPIEALRASTYNAAMAIGINAGVIEIGKDADIIIINGDPTLNVREISKITHVVKNGKLTVENKSIKG
modifications: exemplary polypeptide
Regarding B9, the “T50 (temperature at which 50% of the initial activity was maintained)” value in data set [1] is greater than 95 °C.

B10: 30 (protein)
chain: MELAIRNGIVFNGKEVIGKTNIYVREGKIVEVSREDHSAKMEIDAKDMFVMPGLIDAHIHLSGIKGGSLLKIMFEKPEYRVLRAAKWLEKLLLAGFTTVRDCGETVSLALKRAVNDGIIDGPKVIAAGKPITQTFGHGELSHDVPLEFSKTMSFSEFCDGMESCIHAARKVLRDGADFIKIFATGGVLSQRDTPEHPQLSYEEIRAIVNEAEKVNSYVAAHAHGDRGARIAIEAGVKTLEHGTLLKDETLKLMKEKNVTLTPTLTIQELIFKYGKQIGVDEWGLQKITSVRESIANVVRKAKEYGVTIISGTDLGFETGLEEIEMGKNWMETVLLVERGGLSPIEALRASTYNAAMAIGINAGVIEIGKDADIIIINGDPTQNVREISKITHVIKNGKLTVENKSIKG
modifications: exemplary polypeptide
With B10, in data set [1], the “T50 (temperature at which 50% of the initial activity was maintained)” value is greater than 95 °C.

(Values after patent publication US20240352438A1, “MEANS AND METHODS FOR DETOXIFYING OCHRATOXIN A” (DSM Austria GmbH, priority 2021, published 2024).)
